Measurements: paper PMC2847226

Assays:
[1] = biological target: T1, Trx-HIS6-hTERT(1-200) (hTEN) (human, UniProt O14746 1-200); assay: competition EMSA
[2] = biological target: T1, Trx-HIS6-hTERT(1-200) (hTEN); assay: competition EMSA; remark: listed apart in the source
[3] = biological target: T1, Trx-HIS6-hTERT(1-200) (hTEN); assay: competition EMSA; remark: listed apart in the source
[4] = biological target: T1, Trx-HIS6-hTERT(1-200) (hTEN); assay: competition EMSA; remark: listed apart in the source
[5] = biological target: T1, Trx-HIS6-hTERT(1-200) (hTEN); assay: competition EMSA; remark: listed apart in the source
[6] = biological target: T1, Trx-HIS6-hTERT(1-200) (hTEN); assay: EMSA
[7] = biological target: Trx-HIS6-hTERT(1-200) Y18A (human, UniProt O14746 1-200, Y18A); assay: EMSA
[8] = biological target: Trx-HIS6-hTERT(1-200) T116A/T117A/S118A (human, UniProt O14746 1-200, T116A;T117A;S118A); assay: EMSA
[9] = biological target: Trx-HIS6-hTERT(1-200) Q169A (human, UniProt O14746 1-200, Q169A); assay: EMSA
Sequence of Trx-HIS6-hTERT(1-200) Q169A (O14746 1-200 Q169A): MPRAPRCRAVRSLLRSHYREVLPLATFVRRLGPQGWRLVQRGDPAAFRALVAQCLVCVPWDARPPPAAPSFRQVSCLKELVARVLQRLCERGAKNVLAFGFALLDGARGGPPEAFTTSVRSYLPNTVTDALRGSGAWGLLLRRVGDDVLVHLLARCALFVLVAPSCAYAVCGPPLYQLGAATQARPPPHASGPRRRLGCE

T1 sequence (O14746 1-200): as the sequence (O14746 1-200 Q169A) above, with A169Q counted along it
Sequence of Trx-HIS6-hTERT(1-200) Y18A (O14746 1-200 Y18A): as the sequence (O14746 1-200 Q169A) above, with Y18A, A169Q counted along it
Sequence of Trx-HIS6-hTERT(1-200) T116A/T117A/S118A (O14746 1-200 T116A/T117A/S118A): as the sequence (O14746 1-200 Q169A) above, with T116A, T117A, S118A, A169Q counted along it

For TTAGGGTTAGCGTTAGGG (ssDNA) [I.C11], the binding signal [1] was 7 fold lower apparent affinity vs I (relative IC50).

GGGTTAGGGTTAGGG (ssDNA) [III]: binds [2].

GGTTAGGGTTAGG (ssDNA) [VI / (GGTTAG)2G]: binds [3].

GGTTATTATTAGG (ssDNA) [VI.TA6]: binds [4].

GTTAGGGTTAGGG (ssDNA) [IV]: binds [5].

GGGTTAGGGTTAGGGTTA (ssDNA) [II]: binds [2].

TTAGGGTTAGGGTTAGGG (ssDNA) [(TTAGGG)3 / I]: binds [6]; binds [7]; binds [8]. TTAGGGTTAGGGTTAGGG (ssDNA) [(TTAGGG)3 / I]: binds [9].
